# From publication PMC3655262
# Read-outs that look alike come from different tables or passages of the source.
# T1: hZFP57zf3-4E273A (Homo sapiens, UniProt Q9NU63-3 227-287, C232F;E273A)
# T1 sequence: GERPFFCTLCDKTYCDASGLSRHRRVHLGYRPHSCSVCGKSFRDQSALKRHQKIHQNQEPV
# T2: hZFP57zf1-4 (Homo sapiens, UniProt Q9NU63-3 172-287)
# T2 sequence: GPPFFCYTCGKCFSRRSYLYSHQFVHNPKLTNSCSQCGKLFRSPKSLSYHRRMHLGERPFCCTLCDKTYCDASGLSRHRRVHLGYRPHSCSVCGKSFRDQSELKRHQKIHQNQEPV
# T3: hZFP57zf3-4 (C232F) (Homo sapiens, UniProt Q9NU63-3 227-287, C232F)
# T3 sequence: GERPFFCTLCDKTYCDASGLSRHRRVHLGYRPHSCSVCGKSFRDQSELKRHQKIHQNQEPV
# B1: TGCCGC unmethylated probe (dsDNA)
# DNA 1: GTAATATTGCCGCAGTAATA
# DNA 2: TATTACTGCGGCAATATTAC
# B2: TGCmetCGC probe (both strands methylated) (dsDNA)
# DNA 1: GTAATATTGCCGCAGTAATA
# DNA 2: TATTACTGCGGCAATATTAC
# modifications: 5-methylcytosine at C11 of strand 1 and C9 of strand 2
# Assays:
# Test in all cases: EMSA
# hZFP57zf3-4E273A [1] = biological target: T1, hZFP57zf3-4E273A
# hZFP57zf3-4E273A [2] = biological target: T1, hZFP57zf3-4E273A; remark: listed apart in the source
# hZFP57zf1-4 = biological target: T2, hZFP57zf1-4
# hZFP57zf3-4 (C232F) = biological target: T3, hZFP57zf3-4 (C232F)
binder,measurement,setting,value
B1,binding result,hZFP57zf3-4E273A [1],binds
B2,binding result,hZFP57zf3-4E273A [2],binds
same,binding result,hZFP57zf1-4,binds
same,binding result,hZFP57zf3-4 (C232F),binds
